Measurements from US20150291952.

Target: CHK2 (UniProt O96017)
Assay: EMSA
Conditions: SEQ:22 is the DNA template strand, RNA is its reverse complement

Sequence of CHK2 (O96017 whole entry): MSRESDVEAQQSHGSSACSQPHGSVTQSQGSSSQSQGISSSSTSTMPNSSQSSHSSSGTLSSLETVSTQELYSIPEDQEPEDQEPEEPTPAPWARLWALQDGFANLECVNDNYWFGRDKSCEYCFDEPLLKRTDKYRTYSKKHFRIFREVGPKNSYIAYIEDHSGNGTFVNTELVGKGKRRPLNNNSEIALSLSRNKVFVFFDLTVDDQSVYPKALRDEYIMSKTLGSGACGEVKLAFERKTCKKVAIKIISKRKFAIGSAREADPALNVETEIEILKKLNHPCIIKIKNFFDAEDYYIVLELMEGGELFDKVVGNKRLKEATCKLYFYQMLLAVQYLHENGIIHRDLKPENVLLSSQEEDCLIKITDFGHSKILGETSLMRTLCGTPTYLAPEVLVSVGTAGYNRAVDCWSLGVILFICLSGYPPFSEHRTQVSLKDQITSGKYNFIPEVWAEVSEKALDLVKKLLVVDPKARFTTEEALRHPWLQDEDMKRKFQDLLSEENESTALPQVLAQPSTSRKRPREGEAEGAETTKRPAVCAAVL

## AAGCUUCGUCAAGUCUGCAGUGAANNNNNNNNNNNNNNNNNNNNNNNNNNNNNNNNNNNNNNNNNNNNNNNNNNNNNNNNNNNNNNNNNNNNNNGAAUUCGUAGAUGUGGAUCCAUUCCC [CHK2 SELEX Cycle 3 pool]
Bulk pool, 69% bound, FP Kd 1.6-fold higher (FIG. 8)
  Kd: 315 nM

## AAGCUUCGUCAAGUCUGCAGUGAANNNNNNNNNNNNNNNNNNNNNNNNNNNNNNNNNNNNNNNNNNNNNNNNNNNNNNNNNNNNNNNNNNNNNNGAAUUCGUAGAUGUGGAUCCAUUCCC [CHK2 RAPID Cycle 2 pool]
Bulk pool, 65% bound at highest protein
  Kd: 390 nM

## AAGCUUCGUCAAGUCUGCAGUGAANNNNNNNNNNNNNNNNNNNNNNNNNNNNNNNNNNNNNNNNNNNNNNNNNNNNNNNNNNNNNNNNNNNNNNGAAUUCGUAGAUGUGGAUCCAUUCCC [CHK2 RAPID Cycle 4 pool]
Bulk pool, 72% bound at highest protein
  Kd: 209 nM

## AAGCUUCGUCAAGUCUGCAGUGAANNNNNNNNNNNNNNNNNNNNNNNNNNNNNNNNNNNNNNNNNNNNNNNNNNNNNNNNNNNNNNNNNNNNNNGAAUUCGUAGAUGUGGAUCCAUUCCC [CHK2 RAPID Cycle 6 pool]
Bulk pool, 87% bound at highest protein
  Kd: 191 nM

## AAGCUUCGUCAAGUCUGCAGUGAANNNNNNNNNNNNNNNNNNNNNNNNNNNNNNNNNNNNNNNNNNNNNNNNNNNNNNNNNNNNNNNNNNNNNNGAAUUCGUAGAUGUGGAUCCAUUCCC [CHK2 SELEX Cycle 6 pool]
Bulk pool, 86% bound, FP Kd 1.6-fold higher (FIG. 8)
  Kd: 281 nM

## AAGCUUCGUCAAGUCUGCAGUGAANNNNNNNNNNNNNNNNNNNNNNNNNNNNNNNNNNNNNNNNNNNNNNNNNNNNNNNNNNNNNNNNNNNNNNGAAUUCGUAGAUGUGGAUCCAUUCCC [N70 starting RNA library]
Starting library, 59% bound at highest protein
  Kd: > 1000 nM
